# Experimental data reported in patent US20220033520A1.
# B1: anti-BACE1 hIgG4 antibody, Fc modification T1-IgG4 (M252Y/T307Q/N434Y) (antibody, part only; not given: anti-BACE1 variable domains, not shown: another chain or arm of the molecule)
# Fc: PAPEFLGGPSVFLFPPKPKDTLYISRTPEVTCVVVDVSQEDPEVQFNWYVDGVEVHNAKTKPREEQFNSTYRVVSVLQVLHQDWLNGKEYKCKVSNKGLPSSIEKTISKAKGQPREPQVYTLPPSQEEMTKNQVSLTCLVKGFYPSDIAVEWESNGQPENNYKTTPPVLDSDGSFFLYSRLTVDKSRWQEGNVFSCSVMHEALHYHYTQKSLSLSLGK
# B2: anti-BACE1 hIgG4 antibody, Fc modification T3 (M252Y/Q311I/N434Y) (antibody, part only; not given: Anti-BACE1 variable domains, not shown: another chain or arm of the molecule)
# Fc: PAPEFLGGPSVFLFPPKPKDTLYISRTPEVTCVVVDVSQEDPEVQFNWYVDGVEVHNAKTKPREEQFNSTYRVVSVLTVLHIDWLNGKEYKCKVSNKGLPSSIEKTISKAKGQPREPQVYTLPPSQEEMTKNQVSLTCLVKGFYPSDIAVEWESNGQPENNYKTTPPVLDSDGSFFLYSRLTVDKSRWQEGNVFSCSVMHEALHYHYTQKSLSLSLGK
# B3: anti-Abeta hIgG4 antibody, Fc modification Q95 (M252Y/T307Q/Q311A/N434Y) (antibody, part only; not given: anti-Abeta variable domains, not shown: another chain or arm of the molecule)
# Fc: PAPEFLGGPSVFLFPPKPKDTLYISRTPEVTCVVVDVSQEDPEVQFNWYVDGVEVHNAKTKPREEQFNSTYRVVSVLQVLHADWLNGKEYKCKVSNKGLPSSIEKTISKAKGQPREPQVYTLPPSQEEMTKNQVSLTCLVKGFYPSDIAVEWESNGQPENNYKTTPPVLDSDGSFFLYSRLTVDKSRWQEGNVFSCSVMHEALHYHYTQKSLSLSLGK
# B4: anti-BACE1 hIgG4 antibody, Fc modification Q6 (M252Y/M428L/N434Y/Y436I) (antibody, part only; not given: anti-BACE1 variable domains, not shown: another chain or arm of the molecule)
# Fc: PAPEFLGGPSVFLFPPKPKDTLYISRTPEVTCVVVDVSQEDPEVQFNWYVDGVEVHNAKTKPREEQFNSTYRVVSVLTVLHQDWLNGKEYKCKVSNKGLPSSIEKTISKAKGQPREPQVYTLPPSQEEMTKNQVSLTCLVKGFYPSDIAVEWESNGQPENNYKTTPPVLDSDGSFFLYSRLTVDKSRWQEGNVFSCSVLHEALHYHITQKSLSLSLGK
# B5: anti-BACE1 hIgG4 antibody, Fc modification Q7 (M252Y/Q311A/N434Y/Y436I) (antibody, part only; not given: anti-BACE1 variable domains, not shown: another chain or arm of the molecule)
# Fc: PAPEFLGGPSVFLFPPKPKDTLYISRTPEVTCVVVDVSQEDPEVQFNWYVDGVEVHNAKTKPREEQFNSTYRVVSVLTVLHADWLNGKEYKCKVSNKGLPSSIEKTISKAKGQPREPQVYTLPPSQEEMTKNQVSLTCLVKGFYPSDIAVEWESNGQPENNYKTTPPVLDSDGSFFLYSRLTVDKSRWQEGNVFSCSVMHEALHYHITQKSLSLSLGK
# B6: anti-Abeta hIgG4 antibody, Fc modification T94 (M252Y/N286E/N434Y) (antibody, part only; not given: anti-Abeta variable domains, not shown: another chain or arm of the molecule)
# Fc: PAPEFLGGPSVFLFPPKPKDTLYISRTPEVTCVVVDVSQEDPEVQFNWYVDGVEVHEAKTKPREEQFNSTYRVVSVLTVLHQDWLNGKEYKCKVSNKGLPSSIEKTISKAKGQPREPQVYTLPPSQEEMTKNQVSLTCLVKGFYPSDIAVEWESNGQPENNYKTTPPVLDSDGSFFLYSRLTVDKSRWQEGNVFSCSVMHEALHYHYTQKSLSLSLGK
# B7: anti-Abeta hIgG4 antibody, Fc modification T3 (M252Y/Q311I/N434Y) (antibody, part only; not given: anti-Abeta variable domains, not shown: another chain or arm of the molecule)
# Fc: PAPEFLGGPSVFLFPPKPKDTLYISRTPEVTCVVVDVSQEDPEVQFNWYVDGVEVHNAKTKPREEQFNSTYRVVSVLTVLHIDWLNGKEYKCKVSNKGLPSSIEKTISKAKGQPREPQVYTLPPSQEEMTKNQVSLTCLVKGFYPSDIAVEWESNGQPENNYKTTPPVLDSDGSFFLYSRLTVDKSRWQEGNVFSCSVMHEALHYHYTQKSLSLSLGK
# B8: anti-BACE1 hIgG4 antibody, Fc modification T94 (M252Y/N286E/N434Y) (antibody, part only; not given: Anti-BACE1 variable domains, not shown: another chain or arm of the molecule)
# Fc: PAPEFLGGPSVFLFPPKPKDTLYISRTPEVTCVVVDVSQEDPEVQFNWYVDGVEVHEAKTKPREEQFNSTYRVVSVLTVLHQDWLNGKEYKCKVSNKGLPSSIEKTISKAKGQPREPQVYTLPPSQEEMTKNQVSLTCLVKGFYPSDIAVEWESNGQPENNYKTTPPVLDSDGSFFLYSRLTVDKSRWQEGNVFSCSVMHEALHYHYTQKSLSLSLGK
# B9: anti-Abeta hIgG4 antibody, Fc modification Q6 (M252Y/M428L/N434Y/Y436I) (antibody, part only; not given: anti-Abeta variable domains, not shown: another chain or arm of the molecule)
# Fc: PAPEFLGGPSVFLFPPKPKDTLYISRTPEVTCVVVDVSQEDPEVQFNWYVDGVEVHNAKTKPREEQFNSTYRVVSVLTVLHQDWLNGKEYKCKVSNKGLPSSIEKTISKAKGQPREPQVYTLPPSQEEMTKNQVSLTCLVKGFYPSDIAVEWESNGQPENNYKTTPPVLDSDGSFFLYSRLTVDKSRWQEGNVFSCSVLHEALHYHITQKSLSLSLGK
# B10: anti-Abeta hIgG4 antibody, Fc modification Q4 (M252Y/Q311I/M428L/N434Y) (antibody, part only; not given: Anti-Abeta variable domains, not shown: another chain or arm of the molecule)
# Fc: PAPEFLGGPSVFLFPPKPKDTLYISRTPEVTCVVVDVSQEDPEVQFNWYVDGVEVHNAKTKPREEQFNSTYRVVSVLTVLHIDWLNGKEYKCKVSNKGLPSSIEKTISKAKGQPREPQVYTLPPSQEEMTKNQVSLTCLVKGFYPSDIAVEWESNGQPENNYKTTPPVLDSDGSFFLYSRLTVDKSRWQEGNVFSCSVLHEALHYHYTQKSLSLSLGK
# B11: anti-Abeta hIgG4 antibody, Fc modification D1 (M252Y/N434Y) (antibody, part only; not given: Anti-Abeta variable domains, not shown: another chain or arm of the molecule)
# Fc: PAPEFLGGPSVFLFPPKPKDTLYISRTPEVTCVVVDVSQEDPEVQFNWYVDGVEVHNAKTKPREEQFNSTYRVVSVLTVLHQDWLNGKEYKCKVSNKGLPSSIEKTISKAKGQPREPQVYTLPPSQEEMTKNQVSLTCLVKGFYPSDIAVEWESNGQPENNYKTTPPVLDSDGSFFLYSRLTVDKSRWQEGNVFSCSVMHEALHYHYTQKSLSLSLGK
# B12: anti-Abeta hIgG4 antibody, Fc modification Q7 (M252Y/Q311A/N434Y/Y436I) (antibody, part only; not given: anti-Abeta variable domains, not shown: another chain or arm of the molecule)
# Fc: PAPEFLGGPSVFLFPPKPKDTLYISRTPEVTCVVVDVSQEDPEVQFNWYVDGVEVHNAKTKPREEQFNSTYRVVSVLTVLHADWLNGKEYKCKVSNKGLPSSIEKTISKAKGQPREPQVYTLPPSQEEMTKNQVSLTCLVKGFYPSDIAVEWESNGQPENNYKTTPPVLDSDGSFFLYSRLTVDKSRWQEGNVFSCSVMHEALHYHITQKSLSLSLGK
# B13: anti-BACE1 hIgG4 antibody, Fc modification Q95 (M252Y/T307Q/Q311A/N434Y) (antibody, part only; not given: Anti-BACE1 variable domains, not shown: another chain or arm of the molecule)
# Fc: PAPEFLGGPSVFLFPPKPKDTLYISRTPEVTCVVVDVSQEDPEVQFNWYVDGVEVHNAKTKPREEQFNSTYRVVSVLQVLHADWLNGKEYKCKVSNKGLPSSIEKTISKAKGQPREPQVYTLPPSQEEMTKNQVSLTCLVKGFYPSDIAVEWESNGQPENNYKTTPPVLDSDGSFFLYSRLTVDKSRWQEGNVFSCSVMHEALHYHYTQKSLSLSLGK
# Columns and labels:
# [1] = target: human FcRn (FCGRT and beta-2 microglobulin) expressed on MDCK II cells (human) (UniProt P55899); test: cell-based or functional assay
# Chain of human FcRn (FCGRT and beta-2 microglobulin) expressed on MDCK II cells (human) (P55899 24-365, chain 1 of 2): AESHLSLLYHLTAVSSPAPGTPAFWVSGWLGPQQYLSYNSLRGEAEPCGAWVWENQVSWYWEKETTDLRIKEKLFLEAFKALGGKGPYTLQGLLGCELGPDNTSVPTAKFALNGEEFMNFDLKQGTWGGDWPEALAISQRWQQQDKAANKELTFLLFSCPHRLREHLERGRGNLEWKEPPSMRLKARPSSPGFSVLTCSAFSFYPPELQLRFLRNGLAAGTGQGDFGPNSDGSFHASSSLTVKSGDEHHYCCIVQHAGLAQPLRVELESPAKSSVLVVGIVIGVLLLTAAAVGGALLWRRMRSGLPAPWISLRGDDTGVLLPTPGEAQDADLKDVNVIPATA
# Chain of human FcRn (FCGRT and beta-2 microglobulin) expressed on MDCK II cells (human) (P61769 21-119, chain 2 of 2, further chain): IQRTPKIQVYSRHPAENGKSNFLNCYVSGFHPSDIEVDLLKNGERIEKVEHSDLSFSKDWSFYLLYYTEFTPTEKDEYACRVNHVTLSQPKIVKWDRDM
# [2] = target: human FcRn complex (FCGRT and beta-2 microglobulin), recombinant, purified (human) (UniProt P55899); test: SPR, protein L capture, pH 6, kinetic
# Chain of human FcRn complex (FCGRT and beta-2 microglobulin), recombinant, purified (human) (P55899 24-297 limits assumed, chain 1 of 2): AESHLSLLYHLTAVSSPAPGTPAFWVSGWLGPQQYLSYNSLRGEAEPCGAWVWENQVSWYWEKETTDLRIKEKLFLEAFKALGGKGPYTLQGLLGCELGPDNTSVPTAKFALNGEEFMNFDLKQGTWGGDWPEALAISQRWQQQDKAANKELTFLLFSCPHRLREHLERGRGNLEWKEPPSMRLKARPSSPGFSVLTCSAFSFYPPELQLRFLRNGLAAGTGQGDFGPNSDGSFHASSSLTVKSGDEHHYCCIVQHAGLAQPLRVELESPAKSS
# Chain of human FcRn complex (FCGRT and beta-2 microglobulin), recombinant, purified (human) (P61769 21-119 limits assumed, chain 2 of 2, further chain): as the sequence (P61769 21-119, chain 2 of 2, further chain) above
# [3] = target: human FcRn complex (FCGRT and beta-2 microglobulin), recombinant, purified (human) (UniProt P55899); test: SPR, protein L capture, pH 7.4, steady state
# [4] = target: human FcRn complex (FCGRT and beta-2 microglobulin), recombinant, purified (human) (UniProt P55899); test: SPR, anti-human Fab capture, pH 6, steady state
# [5] = target: human FcRn complex (FCGRT and beta-2 microglobulin), recombinant, purified (human) (UniProt P55899); test: SPR, anti-human Fab capture, pH 7.4, steady state
# [6] = target: cyno FcRn (cynomolgus monkey) (UniProt Q8SPV9); test: affinity for cyno FcRn at 25 C, pH 6.0
# Chain of cyno FcRn (cynomolgus monkey) (Q8SPV9 24-297 limits assumed, chain 1 of 2): as the sequence (P55899 24-297 limits assumed, chain 1 of 2) above, with N39D, E44Q, G99S, S189G, S190N, L217M, S269T counted along it
# Chain of cyno FcRn (cynomolgus monkey) (Q8SPW0 21-119 limits assumed, chain 2 of 2, further chain): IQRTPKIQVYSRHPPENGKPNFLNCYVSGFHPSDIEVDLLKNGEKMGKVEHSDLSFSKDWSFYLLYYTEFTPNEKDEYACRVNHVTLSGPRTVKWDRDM
# [7] = target: cyno FcRn (cynomolgus monkey) (UniProt Q8SPV9); test: affinity for cyno FcRn at 25 C, pH 7.4
Binder,Kd [4],Kd [5],further results
B1,–,–,Transcytosis Normalized to WT (normalized to WT) [1]: 80; Kd [2]: 10.5 nM; koff [2]: 0.00897 s⁻¹; kon [2]: 856000 M⁻¹ s⁻¹; Kd [3]: 328 nM
B2,7.4 nM,263 nM,–
B3,6.5 nM,284 nM,Kd [6]: 8.2 nM; Kd [7]: 215 nM
B4,6.3 nM,215 nM,–
B5,–,230 nM,–
B6,8.8 nM,406 nM,Kd [6]: 10.1 nM; Kd [7]: 369 nM
B7,9.2 nM,334 nM,–
B8,7.04 nM,305 nM,–
B9,8 nM,285 nM,–
B10,9.2 nM,486 nM,–
B11,13.1 nM,1020 nM,Kd [6]: 11.5 nM; Kd [7]: 571 nM
B12,7.4 nM,273 nM,–
B13,5.9 nM,202 nM,–
